Where a chain is given by its changes, count along the chain named.
B1: NeuB2-29 (antibody, V domains shown)
VH: QVQLVETGGGVVQPGRSLRLSCAASGFTFSDYAMHWVRQAPGKGLEWVTLISYDGSQKYYADSVKGRFTISRDDSKNTVDLQMNSLKAEDTAVYYCAKFPSLNDNVGFDVWGQGTMVTVSS
VL: QSVLTQPPSVSGAPRERVTISCSGSTSNIENNAVNWYQQLPGKAPKLLIYYDDLVPSGVSDRFSGSKSGTSASLAISGLQSGDEAYYYCAVWDDSLNGPVFGGGTKVTVL
notes: also called Ab29; NewuB2-29
B2: NeuB2-40 (antibody, V domains shown)
VH: QVQLVQSGAEVKKPGASVKVSCKASGYTFTNYGISWVRQAPGQGLEWMGWISGDAGDTKFAQKFQGRVTMTTDTSTTTTYMELRSLRSDDTAVYYCARDGEYIPMFRGFDNYYGLDVWGQGTTVTVSS
VL: QPVLTQPPSVSEAPRQRVTISCSGSSSNIGKNAVNWYQQFPGKAPKLLIYYDDLLPSGVSDRFSGSRSGTSASLAISGLQSEDEADYYCAAWDDRLKGYVFGTGTQLTVL
notes: also called Ab40; 40-HC/40-LC
B3: NeuB2-55 (antibody, V domains shown)
VH: EVQLVQSGAEVKKPGSSVKVSCKASGGTFSSYAISWVRQAPGQGLEWMGGIIPIFGTANYAQKFQGRVTITADESTSTAYMELSSLRSEDTAVYYCARGVDQVDYWGQGTLVTVSS
VL: QAVVTQPASVSGSPGQSITISCTGTSSDVGGYNYVSWYQQHPGKAPKLMIYDVSNRPSGVSNRFSGSKSGNTASLTISGLQAEDEADYYCSSYTSSSTPYVFGTGTKVTVL
notes: also called Ab55; 55-HC/55-LC
B4: NeuB2-60 (antibody, V domains shown)
VH: QVQLQESGPGLVKPSGTLSLTCAVSGGSITSSNWWSWVRQPPGKGLEWIGDISHSGSTNYNPSLKGRVTMSVDRSKNQFFLKLSSVTAADTAMYYCARAFHGMDVWGQGTTVTVSS
VL: QSVLTQPPSVSEAPRQRVTISCSGSSSNIANNAVNWYQQLPGKAPKLLIYYDDLLASGVSDRFSGSRSGTSAALAISGLQSEDEADYYCATWDDDLNGPIFGGGTKVTVL
notes: also called Ab60; 60-HC/60-LC
B5: NeuB2-93 (antibody, V domains shown)
VH: QVQLMQSGAEVKKPGSSVKVSCKASGGRFSSNVMSWVRQAPGQGLEWMGGIIPIFGTPKYAQKFQGRVTITADKSTSTAYMELSSLRSEDTAVYYCASGSTPFDAFDIWGQGTMVTVSS
VL: B3 VL with A2P, V4L, D52E, Y100W, T104G
notes: also called Ab93; 93-HC/93-LC
B6: NeuB2-37 (antibody, V domains shown)
VH: QVQLMQSGAEVKKPGSSVKVSCKASGGTFSSYAISWVRQAPGQGLEWMGGIIPIFGTANYAQKFQGRVTITADESTSTAYMELSSLRSEDTAVYYCARGNHVLRFLEWLPNWFDPWGQGTLVTVSS
VL: not shown
notes: also called Ab37; 37-HC/37-LC
B7: NeuB2-8 (antibody, V domains shown)
VH: QLQLQESGPGLVKPSQTLSLTCAISGGNVSSKSAAWNWIRQSPSRGLEWLGRTYYRSKWYNDYAVSVKSRITINPDTSKNQFSLQLKSVTPEDTAVYYCARSLGEGWFPYFYGMDVWGQGTTVTVSS
VL: QSVLTQPASVSGSPGQSITISCTGTNRDVGGYDYVSWYQQHPGKAPKLMIYGVSNRPSGISNRFSGSKSGSTASLTISGLQVEDEAAYYCSSYTASRTVVFGGGTKVTVL
notes: Human antibody from a phage library; also called 8-HC/8-LC
B8: NeuB2-80 (antibody, V domains shown)
VH: QVQLVQSGAEVKKPGASVKVSCKASGYTFTSYGISWVRQAPGQGLEWMGWISAYNGNTNYAQKLQGRVTMTTDTSTSTAYMELRSLRSDDTAVYYCARDGGGGYFDYWGQGTLVTVSS
VL: QAVVTQPPSASGTPGQRITISCSGSSSNIGKNIVNWYQQVPGAAPKLLIYNNSQRPSGVPDRFSGSKSGTSASLAISGLQSEDEADYYCAAWDDSLRSWLFGGGTKVTVL
notes: Human antibody from a phage library; also called 80-HC/80-LC
B9: NeuB2-110 (antibody, V domains shown)
VH: QVQLVESGGGLVKPGGSLRLSCGISGFTFSDYYMSWIRQAPGKGLEWVSFIGTSGSTIYYADSVKGRFTISRDNANNSLFLQMNSLTVEDTAVYYCAREATSGTYFDYWGQGTLVSVSS
VL: B3 VL with D52E, S54T
notes: Human antibody from a phage library; also called 110-HC/110-LC
B10: NeuB2-128 (antibody, V domains shown)
VH: QVQLQQSGAEVKKPGSSVKVSCKASGGTFSSYAISWVRQAPGQGLEWMGGIIPIFGTANYTQKFQGRVTITADESTSTAYMELSSLRSEDTAVYYCARGPSGSPYGMDVWGQGTTVIVSS
VL: not shown
notes: Human antibody from a phage library; also called 128-HC/128-LC
B11: NeuB2-9 (antibody, V domains shown)
VH: QVQLVQSGAEVKKPGASVKVSCKASGYTFTSYAMHWVRQAPGQRLEWMGWINAGNGNTKYSQKFQGRVTITRDTSASTAYMELSSLRSEDTAVYYCARDFMGYCSSTSCYGVTGAFDIWGQGTMVTVSS
VL: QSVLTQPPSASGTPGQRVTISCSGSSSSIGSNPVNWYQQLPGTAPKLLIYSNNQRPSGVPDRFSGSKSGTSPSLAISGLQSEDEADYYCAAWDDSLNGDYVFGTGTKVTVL
notes: Human antibody from a phage library; also called 9-HC/9-LC
B12: NeuB2-13 (antibody, V domains shown)
VH: QVQLVQSGAEVKKPGASVKVSCKASGYTFTSYYMHWVRQAPGQGLEWMGIINPSGGSTSYAQKFQGRVTMTRDTSTSTVYMELSSLRSEDTAVYYCAREDWGPFDYWGQGTTVTVSS
VL: DIQMTQSPSSLSASVGDRVTITCRASQSISNFVNWYQQKPGEVPKLLIYGASSLQSGVPSRFSGSGSGTDFTLTISSLQPEDFATYYCQQGYSVPLTFGGGTKVEIK
notes: Human antibody from a phage library; also called 13-HC/13-LC
B13: NeuB2-19 (antibody, V domains shown)
VH: QVQLVESGGGVVRPGGSLRLSCAASGFTFDDYGMSWVRQAPGKGLEWVSGINWNGGSTGYADSVKGRFTISRDNAKNSLYLQMNSLRAEDTALYYCAREGDGAFDIWGQGTLVTVSS
VL: QAVVTQPPSASGTPGQRVTISCSGSGSNIRSNGVTWYQQFPGTAPKLLIYDNNQRPSGVPGRFSGSKSGTSGSLAISGLQSEDEADYYCAAWDDNLNAWVFGAGTQLTVL
notes: Human antibody from a phage library; also called 19-HC/19-LC

What follows are binders tested against T1, LILRB2 (UniProt Q8N423 22-460, limits assumed) (assay: BLI, Octet Red96).
T1 construct: Panning used recombinantly expressed LILRB2-His; also called Leukocyte Immunoglobulin-like Receptor subfamily B member 2; LILRB2-His
Experimental: Kinetic binding parameters (KD, kₒₙ, and koff) were determined using Octet Red96 instrument (ForteBio; Fremont, CA).

T1 sequence (Q8N423 22-460 limits assumed): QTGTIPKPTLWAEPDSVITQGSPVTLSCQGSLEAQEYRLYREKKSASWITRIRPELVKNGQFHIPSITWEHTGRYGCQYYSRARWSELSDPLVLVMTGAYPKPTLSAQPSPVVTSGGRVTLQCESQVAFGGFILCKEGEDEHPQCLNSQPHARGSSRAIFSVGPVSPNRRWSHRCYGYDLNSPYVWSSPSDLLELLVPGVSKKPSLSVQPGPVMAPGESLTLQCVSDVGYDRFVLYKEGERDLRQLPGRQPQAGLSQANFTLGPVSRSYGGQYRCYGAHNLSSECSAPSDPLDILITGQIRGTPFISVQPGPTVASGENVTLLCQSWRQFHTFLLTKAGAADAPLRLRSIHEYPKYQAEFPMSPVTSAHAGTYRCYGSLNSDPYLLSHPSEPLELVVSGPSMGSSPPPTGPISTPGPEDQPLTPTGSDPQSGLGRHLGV

Binder | Kd | koff | kon
B1 | 9 nM | 0.00151 s⁻¹ | 168000 M⁻¹ s⁻¹
B2 | 19.2 nM | 0.00471 s⁻¹ | 245000 M⁻¹ s⁻¹
B3 | 56 nM | 0.00723 s⁻¹ | 129000 M⁻¹ s⁻¹
B4 | 24.1 nM | 0.00512 s⁻¹ | 212000 M⁻¹ s⁻¹
B5 | 83.9 nM | 0.0103 s⁻¹ | 123000 M⁻¹ s⁻¹
B6 | 8.45 nM | 0.0004 s⁻¹ | 47400 M⁻¹ s⁻¹

These binders were tested against T2, LILRB2-chimeric reporter receptor on reporter cells (UniProt Q8N423 22-460) (assay: cell-based or functional assay).
T2 sequence (Q8N423 22-460, change not shown): as the sequence (Q8N423 22-460 limits assumed) above

Binder | IC50 (M); GFP signal of LILRB2-chimeric reporter cells on plate-coated oAβ
B1 | 3.44e-10 M
B2 | 3.6e-09 M
B3 | 1.89e-09 M
B4 | 9.82e-10 M
B5 | 3.81e-09 M
B6 | 8.62e-10 M

Biological target: T2, LILRB2-chimeric reporter receptor on …
Experiment: cell-based or functional assay
Remark: another data set of the same source

Binder | IC50 (M); blocking of PS-LILRB2 interaction
B1 | 1.42e-10 M
B2 | 3.54e-10 M
B3 | 3.35e-10 M
B4 | 3.21e-10 M
B5 | 4.45e-10 M
B6 | 2.93e-10 M

Each binder was assayed against T1, LILRB2 (assay: ELISA of phage display clone on LILRB2).

Binder | OD450 in ELISA assay
B1 | 0.819
B2 | 0.276
B3 | 0.886
B4 | 0.744
B5 | 0.543
B6 | 0.417
B7 | 0.548
B8 | 0.64
B9 | 0.972
B10 | 0.446
B11 | 0.515
B12 | 0.552
B13 | 0.663

The binders below were run against T3, recombinantly produced LILRB2 extracellular domain (ECD) protein (UniProt Q8N423 22-460, limits assumed) (assay: ELISA, plate-coated LILRB2, anti-human F(ab)2 HRP detection).
T3 construct: extracellular domain; A LILRB2-His protein was used for panning; also called plate-coated LILRB2; LILRB2 ECD
Experimental: Antibody binding affinity to LILRB2 were measured by ELISA. Increasing concentrations of purified LILRB2 antibodies were incubated with plate-coated LILRB2. The bound antibody was detected by anti-human F(ab)2 HRP, and the signals were quantified as OD₄₅₀ values. EC₅₀ values (Table 5) were calculated using non-linear curve fitting function Sigmoidal dose-response (variable slope) in GraphPad Prism.

T3 sequence (Q8N423 22-460 limits assumed): as above

Binder | EC50
B1 | 0.137 nM
B2 | 0.0664 nM
B3 | 0.175 nM
B4 | 0.161 nM
B5 | 0.159 nM
B6 | 0.658 nM

Each binder was assayed against T4, LILRB2 expressed on the surface of HEK293T cells (UniProt Q8N423 22-597, limits assumed) (assay: flow cytometry on HEK293T cells expressing LILRB2, MFI fold over control; sheet also prints 95%CI=0.19-0.31 µg/mL).
T4 construct: whole, on cells; also called HEK293T cells that express LILRB2
T4 sequence (Q8N423 22-597 limits assumed): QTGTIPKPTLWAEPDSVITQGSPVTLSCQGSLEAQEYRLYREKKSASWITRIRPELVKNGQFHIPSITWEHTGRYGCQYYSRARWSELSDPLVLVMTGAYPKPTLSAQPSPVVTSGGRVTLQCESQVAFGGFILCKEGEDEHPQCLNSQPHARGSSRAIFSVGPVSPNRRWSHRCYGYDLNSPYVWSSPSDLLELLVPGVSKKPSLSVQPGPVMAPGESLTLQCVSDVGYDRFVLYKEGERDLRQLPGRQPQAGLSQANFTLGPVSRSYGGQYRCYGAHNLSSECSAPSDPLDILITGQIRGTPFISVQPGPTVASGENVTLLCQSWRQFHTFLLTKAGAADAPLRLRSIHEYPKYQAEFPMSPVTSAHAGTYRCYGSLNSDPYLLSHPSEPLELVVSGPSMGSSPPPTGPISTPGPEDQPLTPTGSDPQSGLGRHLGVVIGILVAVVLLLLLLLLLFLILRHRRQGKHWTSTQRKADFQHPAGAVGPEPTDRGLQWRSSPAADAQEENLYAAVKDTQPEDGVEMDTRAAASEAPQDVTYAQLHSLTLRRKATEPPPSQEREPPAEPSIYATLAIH

Binder | EC50
B1 | 0.24 µg/mL

— US20240392001A1 (University of Texas, published 2024)
